Tested on: Escherichia coli TOP10
Assay: shrunken log2 fold change of peptide-encoding DNA abundance (4.5 h post-induction vs induction); higher = less antimicrobial activity (less host growth inhibition)
Settings: time post-induction: 4.5 h; library: site-saturation at positions 5, 18, 19, 20
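Also: peptides expressed intracellularly from a pBAD plasmid library in pooled LB shake-flask culture, induced with 0.3% L-arabinose, DNA abundance read by NGS, three biological replicates, DESeq2 with apeglm shrinkage.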

| Sequence | shrunken log2 fold change |
| --- | --- |
| RRIRVRPPRLPRPRPRPTDHPRP | 0.00915 |
| RRIRVRPPRLPRPRPRPTEKPRP | -0.0708 |
| RRIRVRPPRLPRPRPRPTFHPRP | 0.0139 |
| RRIRVRPPRLPRPRPRPTFYPRP | -0.145 |
| RRIRVRPPRLPRPRPRPTGRPRP | 0.274 |
| RRIRVRPPRLPRPRPRPTHWPRP | 0.509 |
| RRIRVRPPRLPRPRPRPTKKPRP | -0.0633 |
| RRIRVRPPRLPRPRPRPTKMPRP | 0.0488 |
| RRIRVRPPRLPRPRPRPTKSPRP | -0.00156 |
| RRIRVRPPRLPRPRPRPTMDPRP | -0.116 |
| RRIRVRPPRLPRPRPRPTNEPRP | -0.0806 |
| RRIRVRPPRLPRPRPRPTPVPRP | 0.465 |
| RRIRVRPPRLPRPRPRPTQSPRP | 0.332 |
| RRIRVRPPRLPRPRPRPTRHPRP | 0.156 |
| RRIRVRPPRLPRPRPRPTRKPRP | 0.575 |
| RRIRVRPPRLPRPRPRPTRRPRP | 0.529 |
| RRIRVRPPRLPRPRPRPTRSPRP | 0.17 |
| RRIRVRPPRLPRPRPRPTRWPRP | 0.173 |
| RRIRVRPPRLPRPRPRPTTHPRP | -0.0858 |
| RRIRVRPPRLPRPRPRPTVPPRP | -0.138 |
| RRIRVRPPRLPRPRPRPTWEPRP | 0.00966 |
| RRIRVRPPRLPRPRPRPTYPPRP | -0.194 |

| Sequence | shrunken log2 fold change |
| --- | --- |
| RRIRVRPPRLPRPRPRPVAIPRP | -0.396 |
| RRIRVRPPRLPRPRPRPVAQPRP | 0.247 |
| RRIRVRPPRLPRPRPRPVCFPRP | 0.147 |
| RRIRVRPPRLPRPRPRPVCNPRP | -0.0396 |
| RRIRVRPPRLPRPRPRPVCRPRP | -0.0404 |
| RRIRVRPPRLPRPRPRPVCWPRP | 0.472 |
| RRIRVRPPRLPRPRPRPVDTPRP | -0.18 |
| RRIRVRPPRLPRPRPRPVEAPRP | 0.0669 |
| RRIRVRPPRLPRPRPRPVEFPRP | 0.0286 |
| RRIRVRPPRLPRPRPRPVEMPRP | -0.0393 |
| RRIRVRPPRLPRPRPRPVETPRP | 0.0754 |
| RRIRVRPPRLPRPRPRPVFCPRP | 0.142 |
| RRIRVRPPRLPRPRPRPVFRPRP | 0.189 |
| RRIRVRPPRLPRPRPRPVHDPRP | -0.745 |
| RRIRVRPPRLPRPRPRPVKNPRP | 0.118 |
| RRIRVRPPRLPRPRPRPVLNPRP | -0.2 |
| RRIRVRPPRLPRPRPRPVLPPRP | 0.0268 |
| RRIRVRPPRLPRPRPRPVMWPRP | 0.365 |
| RRIRVRPPRLPRPRPRPVNCPRP | -0.17 |
| RRIRVRPPRLPRPRPRPVNSPRP | -0.184 |
| RRIRVRPPRLPRPRPRPVRRPRP | 2.95 |
| RRIRVRPPRLPRPRPRPVRYPRP | -0.136 |

| Sequence | shrunken log2 fold change |
| --- | --- |
| RRIRVRPPRLPRPRPRPVSMPRP | -0.066 |
| RRIRVRPPRLPRPRPRPVSQPRP | 0.051 |
| RRIRVRPPRLPRPRPRPVTHPRP | -0.277 |
| RRIRVRPPRLPRPRPRPVVVPRP | -0.194 |
| RRIRVRPPRLPRPRPRPVWCPRP | 0.423 |
| RRIRVRPPRLPRPRPRPVWNPRP | 0.152 |
| RRIRVRPPRLPRPRPRPWAHPRP | -0.0201 |
| RRIRVRPPRLPRPRPRPWCTPRP | 0.0234 |
| RRIRVRPPRLPRPRPRPWDFPRP | -0.0763 |
| RRIRVRPPRLPRPRPRPWDTPRP | 0.00866 |
| RRIRVRPPRLPRPRPRPWFIPRP | -0.329 |
| RRIRVRPPRLPRPRPRPWHYPRP | -0.647 |
| RRIRVRPPRLPRPRPRPWIAPRP | 0.201 |
| RRIRVRPPRLPRPRPRPWIYPRP | 0.0875 |
| RRIRVRPPRLPRPRPRPWKVPRP | -0.0954 |
| RRIRVRPPRLPRPRPRPWLAPRP | 0.232 |
| RRIRVRPPRLPRPRPRPWLLPRP | 0.208 |
| RRIRVRPPRLPRPRPRPWMWPRP | 0.091 |
| RRIRVRPPRLPRPRPRPWPAPRP | -0.0676 |
| RRIRVRPPRLPRPRPRPWPCPRP | -0.22 |
| RRIRVRPPRLPRPRPRPWPYPRP | -0.197 |
| RRIRVRPPRLPRPRPRPWQGPRP | 0.0284 |

| Sequence | shrunken log2 fold change |
| --- | --- |
| RRIRVRPPRLPRPRPRPWTQPRP | -0.219 |
| RRIRVRPPRLPRPRPRPWVFPRP | 0.284 |
| RRIRVRPPRLPRPRPRPWWEPRP | 0.161 |
| RRIRVRPPRLPRPRPRPWYEPRP | -0.337 |
| RRIRVRPPRLPRPRPRPYACPRP | 0.0114 |
| RRIRVRPPRLPRPRPRPYAPPRP | -0.0528 |
| RRIRVRPPRLPRPRPRPYCQPRP | -1.64 |
| RRIRVRPPRLPRPRPRPYCRPRP | -0.213 |
| RRIRVRPPRLPRPRPRPYDAPRP | -0.294 |
| RRIRVRPPRLPRPRPRPYDTPRP | 1.6 |
| RRIRVRPPRLPRPRPRPYESPRP | -0.0252 |
| RRIRVRPPRLPRPRPRPYETPRP | 0.0231 |
| RRIRVRPPRLPRPRPRPYHIPRP | -1.2 |
| RRIRVRPPRLPRPRPRPYIRPRP | -0.434 |
| RRIRVRPPRLPRPRPRPYKIPRP | -0.726 |
| RRIRVRPPRLPRPRPRPYLMPRP | -0.587 |
| RRIRVRPPRLPRPRPRPYMDPRP | -0.0331 |
| RRIRVRPPRLPRPRPRPYNWPRP | -0.603 |
| RRIRVRPPRLPRPRPRPYPIPRP | -0.0204 |
| RRIRVRPPRLPRPRPRPYPLPRP | -0.478 |
| RRIRVRPPRLPRPRPRPYQEPRP | 0.00202 |
| RRIRVRPPRLPRPRPRPYRRPRP | -0.0654 |

| Sequence | shrunken log2 fold change |
| --- | --- |
| RRIRVRPPRLPRPRPRPYRVPRP | -0.0295 |
| RRIRVRPPRLPRPRPRPYSYPRP | 0.128 |
| RRIRVRPPRLPRPRPRPYTAPRP | -0.649 |
| RRIRVRPPRLPRPRPRPYWSPRP | 0.000469 |
| RRIRVRPPRLPRPRPRPYWVPRP | -0.0928 |
| RRIRVRPPRLPRPRPRPYYPPRP | -0.414 |
| RRIRWRPPRLPRPRPRPAADPRP | 1.21 |
| RRIRWRPPRLPRPRPRPAAKPRP | 0.482 |
| RRIRWRPPRLPRPRPRPAAQPRP | -0.0638 |
| RRIRWRPPRLPRPRPRPADRPRP | 0.0754 |
| RRIRWRPPRLPRPRPRPAEIPRP | 0.107 |
| RRIRWRPPRLPRPRPRPAELPRP | -0.0722 |
| RRIRWRPPRLPRPRPRPAETPRP | 0.0775 |
| RRIRWRPPRLPRPRPRPAEVPRP | 0.204 |
| RRIRWRPPRLPRPRPRPAFEPRP | 0.183 |
| RRIRWRPPRLPRPRPRPAFFPRP | 0.111 |
| RRIRWRPPRLPRPRPRPAFHPRP | 0.153 |
| RRIRWRPPRLPRPRPRPAGCPRP | 0.28 |
| RRIRWRPPRLPRPRPRPAKEPRP | -0.01 |
| RRIRWRPPRLPRPRPRPALKPRP | 0.0103 |
| RRIRWRPPRLPRPRPRPALYPRP | 0.232 |
